The source of these data is patent US20040087537A1.

The target in assay [1] is low affinity human Nerve Growth Factor receptor truncated in its intracytoplasmic domain (delta-LNGFR), product of the HN vector (human). Put plainly: FACS on CEMss HN cells, control labeling.
The target in assay [2] is delta-LNGFR/F12Nef fusion protein, product of the NF vector (human LNGFR (NH2 moiety) fused to HIV-1 F12Nef (COOH moiety)). Put plainly: FACS on CEMss NF cells, control labeling.

low affinity human Nerve Growth Factor receptor truncated in its intracytoplasmic domain (delta-LNGFR), product of the HN vector (human), sequence (chain, as listed by the source mutant limits assumed): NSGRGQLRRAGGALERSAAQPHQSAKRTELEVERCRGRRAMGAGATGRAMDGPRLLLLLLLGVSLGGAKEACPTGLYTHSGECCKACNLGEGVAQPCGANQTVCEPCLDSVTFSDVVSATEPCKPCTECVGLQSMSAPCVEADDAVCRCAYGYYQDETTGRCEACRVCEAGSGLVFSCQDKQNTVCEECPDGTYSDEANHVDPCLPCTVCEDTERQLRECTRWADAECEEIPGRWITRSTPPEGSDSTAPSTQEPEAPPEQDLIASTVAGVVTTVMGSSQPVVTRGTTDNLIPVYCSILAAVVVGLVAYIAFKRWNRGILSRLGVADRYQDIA

For “species and isotype matched IgG (antibody)”, the MFI in assay [1] and in assay [2] was 1 to 1.5 each time.
